# B1: WT: non-mutated Candida antarctica lipase B (CALB), SEQ ID NO: 2, immobilized on carrier beads (protein, listed as Candida antarctica)
# chain: LPSGSDPAFSQPKSVLDAGLTCQGASPSSVSKPILLVPGTGTTGPQSFDSNWIPLSAQLGYTPCWISPPPFMLNDTQVNTEYMVNAITTLYAGSGNNKLPVLTWSQGGLVAQWGLTFFPSIRSKVDRLMAFAPDYKGTVLAGPLDALAVSAPSVWQQTTGSALTTALRNAGGLTQIVPTTNLYSATDEIVQPQVSNSPLDSSYLFNGKNVQAQAVCGPLFVIDHAGSLTSQFSYVVGRSALRSTTGQARSADYGITDCNPLPANDLTPEQKVAAAALLAPAAAAIVAGPKQNCEPDLMPYARPFAVGKRTCSGIVTP
# modifications: immobilized on carrier beads
# Tests used:
# [1] = Enzyme selectivities and specificities towards 1,2-ethanediol with vinyl acetate or vinyl butyrate in MTBE (Example 7); format: biochemical
# Experimental: (§1) Reactions using the CALB mutants as described in Example 5 and Example 6 were run with two different straight chain primary diols: 1,2-ethanediol, ≧99.5% from MERCK and 1,4-butanediol, ≧99% from Aldrich. Two different acyl donors were used: vinyl acetate, ≧99% from Fluka and vinyl butyrate, >99% from Fluka. Decane, ≧99% from Fluka, was used as internal standard. MTBE, 99.5% from Lab-Scan was used as solvent.
# (§2) Each diol was dissolved to a concentration of 100 mM together with 1 M of the acyl donor and 20 mM decane in MTBE. Reactions were started by adding 3 ml reaction solution to a specific amount of enzyme carrier beads. Different amounts of enzyme carrier beads were used for the different reactions. For reactions with 1,2-ethanediol and vinyl acetate, 19.7 mg wild type, 22.5 mg A282L, 50.5 mg A281V, and 45.5 A281E CALB were used. […]
# (§3) All reactions were analyzed on GC, Hewlett Packard 5890 series II. Two different 25 m×0.32 mm WCOT fused silica columns were used, depending on the different substrates and products that were analyzed. […] The response factor for each diol was determined in relationship to decane. When all diol and mono-ester had converted to di-ester, the response factor for the di-ester could be determined in relationship to decane. The concentration of mono-ester in each reaction was determined by subtracting the concentration of di-ester from the starting concentration of diol.
# [2] = Enzyme selectivities and specificities towards 1,4-butanediol with vinyl acetate or vinyl butyrate in MTBE (Example 7); format: biochemical
# Experimental: as §1, §2, §3
molecule,measurement,setting,value
B1,Initial reaction rates,[1]; vinyl acetate,0.21 mol/g/min
same,Initial reaction rates,[1]; vinyl butyrate,0.36 mol/g/min
same,Initial reaction rates,[2]; vinyl acetate,0.12 mol/g/min
same,Initial reaction rates,[2]; vinyl butyrate,0.24 mol/g/min
